Test results published in patent US20130115213A1.

Tests used:
[1] = target: human CD3 (TCR/CD3 complex) on the cell surface (human) (UniProt P07766); experiment: flow cytometry on CD3+ Jurkat cells, Lineweaver-Burk fit
[2] = target: human CD3 (TCR/CD3 complex) on the cell surface (human) (UniProt P07766); experiment: cell surface retention on CD3+ Jurkat cells at 37 C; ln2/koff
[3] = target: human CD3 (TCR/CD3 complex) on the cell surface (human) (UniProt P07766); experiment: cell surface retention on CD3+ Jurkat cells at 37 C; reference scFv10
[4] = target: human CD3 (TCR/CD3 complex) on the cell surface (human) (UniProt P07766); experiment: cell-based or functional assay
[5] = target: human CD3 (TCR/CD3 complex) on the cell surface (human) (UniProt P07766); experiment: cell surface retention on CD3+ Jurkat cells at 37 C, flow cytometry, one-phase exponential decay fit

Chain of UniProt P07766 (P07766 23-207, one chain of several): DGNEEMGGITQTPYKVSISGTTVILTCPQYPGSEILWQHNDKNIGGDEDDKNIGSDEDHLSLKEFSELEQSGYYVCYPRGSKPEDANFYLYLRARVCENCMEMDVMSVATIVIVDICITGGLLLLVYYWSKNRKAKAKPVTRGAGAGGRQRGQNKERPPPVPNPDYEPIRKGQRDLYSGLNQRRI

Substance: mAb OKT3 (Orthoclone OKT3, Cilag) (antibody)
- Kd [1]: 2.06 nM
- t1/2 [2]: 2.59 min
- fold longer t1/2 against scFv10 [3]: 2.5 fold
- CD3 modulation (fraction of TCR/CD3 complexes on the surface of T cells that is lost after antibody treatment), PBMC, 24 h [4]: > 90%
- koff [5]: 0.00447 s⁻¹
